Patent US20240368668A1, “SUBSTRATES AND BIOMARKERS OF ADAMTS7” (The Broad Institute, Inc., priority 2021, published 2024)
Square brackets hold non-standard residues; d marks the D form. Ends that are not written are not given here.

What follows are substances tested against T1, mouse ADAMTS7 (Mus musculus, UniProt Q68SA9) (assay: TMT10 TAILS N-terminomics, HUVEC experiment (process replicates, trypsin/AspN digest)). Settings: HUVEC TAILS HC; log fold change of N-terminal peptide, Ad-mADAMTS7 WT over Luc.
T1 construct: Full-length mouse Adamts7 1-1857 (Uniprot Q68SA9, WT or E373Q catalytic mutant); expressed in transfected cells; host or cells: Human Coronary Artery Smooth Muscle Cells (HCA-SMC, Lonza), adenovirus 50 MOI
T1 sequence (Q68SA9 221-1657): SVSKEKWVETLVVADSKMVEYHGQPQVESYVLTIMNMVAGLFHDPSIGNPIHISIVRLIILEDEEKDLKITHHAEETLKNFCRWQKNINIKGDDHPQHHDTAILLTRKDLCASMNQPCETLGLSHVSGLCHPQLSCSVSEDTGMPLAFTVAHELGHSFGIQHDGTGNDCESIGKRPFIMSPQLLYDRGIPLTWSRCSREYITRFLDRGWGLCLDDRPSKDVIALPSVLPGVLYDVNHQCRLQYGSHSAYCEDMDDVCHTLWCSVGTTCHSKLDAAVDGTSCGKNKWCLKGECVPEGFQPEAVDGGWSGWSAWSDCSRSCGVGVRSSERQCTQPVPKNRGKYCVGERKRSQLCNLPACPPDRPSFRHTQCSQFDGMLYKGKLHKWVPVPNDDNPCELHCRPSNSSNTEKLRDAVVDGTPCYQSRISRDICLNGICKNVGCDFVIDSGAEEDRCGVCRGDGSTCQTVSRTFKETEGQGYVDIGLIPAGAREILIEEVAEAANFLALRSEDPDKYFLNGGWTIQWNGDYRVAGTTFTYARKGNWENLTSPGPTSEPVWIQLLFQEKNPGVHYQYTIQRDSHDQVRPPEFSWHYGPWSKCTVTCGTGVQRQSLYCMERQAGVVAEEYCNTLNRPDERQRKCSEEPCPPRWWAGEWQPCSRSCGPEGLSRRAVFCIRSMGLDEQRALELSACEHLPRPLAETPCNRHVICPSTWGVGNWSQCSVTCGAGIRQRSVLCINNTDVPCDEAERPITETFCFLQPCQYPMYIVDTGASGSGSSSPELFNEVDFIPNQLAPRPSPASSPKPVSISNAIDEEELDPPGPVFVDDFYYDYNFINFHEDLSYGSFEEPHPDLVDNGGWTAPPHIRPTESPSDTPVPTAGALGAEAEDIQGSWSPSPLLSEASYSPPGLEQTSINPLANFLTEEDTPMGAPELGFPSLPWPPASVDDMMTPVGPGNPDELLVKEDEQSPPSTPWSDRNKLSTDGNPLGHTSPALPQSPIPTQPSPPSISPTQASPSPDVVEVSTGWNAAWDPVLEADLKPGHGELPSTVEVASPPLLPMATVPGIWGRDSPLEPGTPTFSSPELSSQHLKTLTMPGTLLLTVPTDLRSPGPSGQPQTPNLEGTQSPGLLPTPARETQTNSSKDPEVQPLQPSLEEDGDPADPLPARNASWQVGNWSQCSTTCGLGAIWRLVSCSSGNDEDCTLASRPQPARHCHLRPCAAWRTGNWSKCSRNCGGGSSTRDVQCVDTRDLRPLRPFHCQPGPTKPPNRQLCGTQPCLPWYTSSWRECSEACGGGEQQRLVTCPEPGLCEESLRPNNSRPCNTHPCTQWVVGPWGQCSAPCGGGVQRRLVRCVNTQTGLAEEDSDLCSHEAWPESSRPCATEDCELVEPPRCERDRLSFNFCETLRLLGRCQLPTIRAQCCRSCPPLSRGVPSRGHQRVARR
Assay type: cell-based, human
Summary of the method: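 Full-length mouse ADAMTS7 (WT or E373Q mutant, C-terminal 3xFLAG) or luciferase was transduced via adenovirus, 50 MOI, into HCA-SMC (SMC1, SMC2) or HUVEC. SMC1: pooled media, technical triplicates 400 ug; SMC2: process triplicates 300 ug; HUVEC: process triplicates 200 ug, bFGF2 10 ng/ml.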

logFC.mWT.over.Luc	Substance
2.21	ECM1_108 (QEAVPLQK; listed as Homo sapiens)
2.34	EFEMP1_125_ (VAGPEMQTGR; listed as Homo sapiens)
5.05	ERAP2_718 (ISENLKR; listed as Homo sapiens)
1.10	EWSR1_87 (YSQPVQGYGTGAY; listed as Homo sapiens)
1.37	FN1_34 ([code q]QMVQPQSPVAVSQSKPGCY; not fully specified (residue 3); listed as Homo sapiens)
2.31	FN1_35 ([code q]MVQPQSPVAVSQSKPGCY; not fully specified (residue 2); listed as Homo sapiens)
0.96	FN1_293 (VYQPQPHPQPPPYGHCVT; listed as Homo sapiens)
1.43	FN1_1144 (TPGVEYVYTIQVLR; listed as Homo sapiens)
1.80	FN1_1780 (LQGLRPGSEYTVSVVALH; listed as Homo sapiens)
1.47	FN1_1805 (LIGTQSTAIPAPT; listed as Homo sapiens)
1.05	FN1_2113 (FVTHPGY; listed as Homo sapiens)
2.34	FSTL1_290 (LQKHQETA; listed as Homo sapiens)
3.82	LOX_125 (FQAGYSTSR; listed as Homo sapiens)

Substance	logFC.mWT.over.Luc
FN1_607 (SSSGPVEVFIT; listed as Homo sapiens)	2.31
